From patent US20260274985A1 (MYTHIC THERAPEUTICS, published 2026)

T1: Human TROP2 Protein, His Tag (Acro Biosystems) (human, UniProt P09758 27-274)
T1 construct: Bought antigen used at 50 nM in the Octet screen; also called TACSTD2; not shown: His tag
T1 sequence (looked up): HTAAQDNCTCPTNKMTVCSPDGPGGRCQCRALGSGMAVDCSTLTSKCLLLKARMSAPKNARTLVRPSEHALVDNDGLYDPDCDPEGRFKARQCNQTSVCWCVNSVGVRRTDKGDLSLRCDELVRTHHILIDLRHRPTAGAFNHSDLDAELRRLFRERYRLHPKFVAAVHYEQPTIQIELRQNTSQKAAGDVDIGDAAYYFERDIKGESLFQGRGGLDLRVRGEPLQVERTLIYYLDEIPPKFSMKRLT

T2: Human TROP2 Protein, His Tag (Acro Biosystems) (human, UniProt P09758 27-274)
T2 construct: not shown: His tag
T2 sequence (looked up): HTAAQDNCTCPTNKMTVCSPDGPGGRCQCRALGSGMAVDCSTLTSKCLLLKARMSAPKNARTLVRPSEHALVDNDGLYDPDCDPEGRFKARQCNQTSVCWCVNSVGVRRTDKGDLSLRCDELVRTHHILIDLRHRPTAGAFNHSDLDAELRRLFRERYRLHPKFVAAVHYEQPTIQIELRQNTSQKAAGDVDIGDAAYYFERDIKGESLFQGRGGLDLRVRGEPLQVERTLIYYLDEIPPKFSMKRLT


What follows are binders tested against T1, Human TROP2 Protein, His Tag (Acro …) (assay: BLI (Octet) [1/2]).
Procedure: After allowing for four days of protein expression, cell culture supernatants were collected, quantified by SDS-PAGE analysis (DNS), and the pH dependence of the variant was evaluated using biolayer interferometry (BLI) on an Octet RED 96e instrument. Briefly, cell culture supernatants were diluted based on qualitative expression level of the variant determined by visual examination of SDS-PAGE gels, 5 μL of cell culture supernatant was diluted into 195 μL of 1×PBST, pH 7.4 for high expressors, 25 μL of cell culture supernatant was diluted into 175 μL of 1×PBST, pH 7.4 for medium expressors and 100 μL of cell culture supernatant was diluted into 100 μL of 1×PBST, pH 7.4 for low expressors for loading onto the sensor tips. The resulting diluted supernatants were then captured on an anti-human Fc sensor (Forte Bio). A baseline was established using 1×PBST (50 mM Potassium Phosphate Buffer+150 mM NaCl+0.05% Tween 20) pH 7.4, and the sensor was associated with 50 nM of TROP2 (Human TROP2 Protein, His Tag, Acro Biosystems) in 1×PBST pH 7.4 for 120 sec to generate an association curve. In the dissociation phase, the antibody-antigen complex on the sensor was exposed to 1×PBST pH 7.4 or pH 5.4, for 300 sec. Association and dissociation phase curves were examined for the starting ABPC antibody (with no substitutions) and each corresponding antibody variant at pH 5.4 and pH 7.4 to inform on two criteria: a) enhanced dissociation (i.e., higher koff values) at pH 5.4 due to histidine or alanine substitution compared to the starting ABPC, (with no substitutions), and b) reduced dissociation at pH 7.4 (i.e., lower koff values) compared to pH 5.4 in the antibody variant itself and with the starting ABPC (with no substitutions). […] It was also noted that while some mutations obliterated TROP2 binding, others were tolerated with little or n change in TROP2 binding kinetics.

| binding result | Binder |
| --- | --- |
| no binding (tested: 50 nM) | MYT11751 (antibody, V domains shown, hu7E6SVG variant, His at LCV position 31 (L1 08); screened as IgG in Expi293 supernatant) VH: QVQLQESGPGLVKPSETLSLTCTVSGGSISSYGVHWIRQPPGKGLEWIGVIWTSGVTDYNSALMGRVTISVDTSKNQFSLKLSSVTAADTAVYYCARDGDYDRYTMDYWGQGTLVTVSS VL: DIVMTQSPDSLAVSLGERATINCRASKSVSHSGYSYMHWYQQKPGQPPKLLIYLASNLESGVPDRFSGSGSGTDFTLTISSLQAEDVAVYYCQHSRELPYTFGQGTKLEIK |
| binds | MYT11754 (antibody, V domains shown, hu7E6SVG variant, His at LCV position 34 (L1 11); screened as IgG in Expi293 supernatant) VH: QVQLQESGPGLVKPSETLSLTCTVSGGSISSYGVHWIRQPPGKGLEWIGVIWTSGVTDYNSALMGRVTISVDTSKNQFSLKLSSVTAADTAVYYCARDGDYDRYTMDYWGQGTLVTVSS VL: DIVMTQSPDSLAVSLGERATINCRASKSVSTSGHSYMHWYQQKPGQPPKLLIYLASNLESGVPDRFSGSGSGTDFTLTISSLQAEDVAVYYCQHSRELPYTFGQGTKLEIK |
| binds | MYT11752 (antibody, V domains shown, hu7E6SVG variant, His at LCV position 32 (L1 09); screened as IgG in Expi293 supernatant) VH: QVQLQESGPGLVKPSETLSLTCTVSGGSISSYGVHWIRQPPGKGLEWIGVIWTSGVTDYNSALMGRVTISVDTSKNQFSLKLSSVTAADTAVYYCARDGDYDRYTMDYWGQGTLVTVSS VL: DIVMTQSPDSLAVSLGERATINCRASKSVSTHGYSYMHWYQQKPGQPPKLLIYLASNLESGVPDRFSGSGSGTDFTLTISSLQAEDVAVYYCQHSRELPYTFGQGTKLEIK |
| binds | MYT11755 (antibody, V domains shown, hu7E6SVG variant, His at LCV position 35 (L1 12); screened as IgG in Expi293 supernatant) VH: QVQLQESGPGLVKPSETLSLTCTVSGGSISSYGVHWIRQPPGKGLEWIGVIWTSGVTDYNSALMGRVTISVDTSKNQFSLKLSSVTAADTAVYYCARDGDYDRYTMDYWGQGTLVTVSS VL: DIVMTQSPDSLAVSLGERATINCRASKSVSTSGYHYMHWYQQKPGQPPKLLIYLASNLESGVPDRFSGSGSGTDFTLTISSLQAEDVAVYYCQHSRELPYTFGQGTKLEIK |
| binds | MYT11753 (antibody, V domains shown, hu7E6SVG variant, His at LCV position 33 (L1 10); screened as IgG in Expi293 supernatant) VH: QVQLQESGPGLVKPSETLSLTCTVSGGSISSYGVHWIRQPPGKGLEWIGVIWTSGVTDYNSALMGRVTISVDTSKNQFSLKLSSVTAADTAVYYCARDGDYDRYTMDYWGQGTLVTVSS VL: DIVMTQSPDSLAVSLGERATINCRASKSVSTSHYSYMHWYQQKPGQPPKLLIYLASNLESGVPDRFSGSGSGTDFTLTISSLQAEDVAVYYCQHSRELPYTFGQGTKLEIK |

The binders below were run against T2, Human TROP2 Protein, His Tag (Acro …) (assay: Octet (BLI); antigen and pH not given).

| Kd [nM] | Octet response at 33.33 nM (Y-Axis) nm [nm] | Binder |
| --- | --- | --- |
| 3.4 | 0.0911 | MYT11690 (antibody, V domains shown, IgG; also called Datopotamab LC variant) VH: QVQLVQSGAEVKKPGASVKVSCKASGYTFTTAGMQWVRQAPGQGLEWMGWINTHSGVPKYAEDFKGRVTISADTSTSTAYLQLSSLKSEDTAVYYCARSGFGSSYWYFDVWGQGTLVTVSS VL: DIQMTQSPSSLSASVGDRVTITCKASQDVSTAVAWYQQKPGKAPKLLIYSAHYRYTGVPSRFSGSGSGTDFTLTISSLQPEDFAVYYCQQHYITPLTFGQGTKLEIK |
| 6.03 | 0.0719 | MYT11691 (antibody, V domains shown, IgG; also called Datopotamab LC variant) VH: QVQLVQSGAEVKKPGASVKVSCKASGYTFTTAGMQWVRQAPGQGLEWMGWINTHSGVPKYAEDFKGRVTISADTSTSTAYLQLSSLKSEDTAVYYCARSGFGSSYWYFDVWGQGTLVTVSS VL: DIQMTQSPSSLSASVGDRVTITCKASQDVSTAVAWYQQKPGKAPKLLIYSASHRYTGVPSRFSGSGSGTDFTLTISSLQPEDFAVYYCQQHYITPLTFGQGTKLEIK |
| 9.5 | 0.0712 | MYT13265 (antibody, V domains shown, Full-length IgG; also called Datopotamab HC-LC pairing variant) VH: QVQLVQSGAEVKKPGASVKVSCKASGYTFTTAGMQWVRQAPGQGLEWMGWINTHSGVPKYAEDFKGRVTISADTSTSTAYLQLSSLKSEDTAVYYCAHSGFGSSYWYFDVWGQGTLVTVSS VL: DIQMTQSPSSLSASVGDRVTITCKASQDVSTAVAWYQQKPGKAPKLLIYSASHRYTGVPSRFSGSGSGTDFTLTISSLQPEDFAVYYCQQHYITPLTFGQGTKLEIK |
